Experimental data reported in PMC11969024 (2025).

B1: peptide HD2 (from tick evasin EVA4) / CXCL14 (biotinylated, synthetic) (parent complex)
chain 1: EEDDYTAYAPLTCYFT
chain 2: SKCKCSRKGPKIRYSDVKKLEMKPKYPHCEEKMVIITTKSVSRYRGQEHCLHPKLQSTKRFIKWYNAWNEKRRVYEE
B2: peptide HD2 (from tick evasin EVA4) / CCL1 (biotinylated, synthetic) (parent complex)
chain 1: EEDDYTAYAPLTCYFT
chain 2: KSMQVPFSRCCFSFAEQEIPLRAILCYRNTSSICSNEGLIFKLKRGKEACALDTVGWVQRHRKMLRHCPSKRK

Variants of: B1

Question: How did the enrichment turn out when chain 1 T16K was run?
Answer: Its enrichment is 0.732 log2 (difference from the parental peptide).

Question: chain 1 T16V was tested. Which enrichment did it give?
Answer: The enrichment was -2.39 log2 (difference from the parental peptide).

Question: How did the enrichment turn out when chain 1 T16A was run?
Answer: Its enrichment is -3.04 log2 (difference from the parental peptide).

Question: How did the enrichment turn out when chain 1 T16N was run?
Answer: The enrichment was -3.97 log2 (difference from the parental peptide).

Question: For chain 1 T16E, which enrichment is on record?
Answer: The enrichment was -5.76 log2 (difference from the parental peptide).

Question: How did the enrichment turn out when chain 1 T16M was run?
Answer: The enrichment was 1.39 log2 (difference from the parental peptide).

Question: chain 1 T16P was tested. Which enrichment did it give?
Answer: Its enrichment is -4.73 log2 (difference from the parental peptide).

Question: With chain 1 Y8D as the variant, how does the enrichment read?
Answer: The enrichment was 2.61 log2 (difference from the parental peptide).

Question: Which enrichment does the source give for chain 1 Y8F here?
Answer: Its enrichment is -1.72 log2 (difference from the parental peptide).

Question: With chain 1 Y8V as the variant, how does the enrichment read?
Answer: Its enrichment is 3.87 log2 (difference from the parental peptide).

Question: For chain 1 D3E, which enrichment is on record?
Answer: The enrichment was -1.97 log2 (difference from the parental peptide).

Question: How did the enrichment turn out when chain 1 D3P was run?
Answer: Its enrichment is -5.77 log2 (difference from the parental peptide).

Question: chain 1 T6L was tested. Which enrichment did it give?
Answer: Its enrichment is 0.717 log2 (difference from the parental peptide).

Question: For chain 1 T6W, which enrichment is on record?
Answer: Its enrichment is 5.58 log2 (difference from the parental peptide).

Question: Which enrichment does the source give for chain 1 T6V here?
Answer: The enrichment was -0.538 log2 (difference from the parental peptide).

Question: For chain 1 T6C, which enrichment is on record?
Answer: The enrichment was -9.38 log2 (difference from the parental peptide).

Question: Which enrichment does the source give for chain 1 T6A here?
Answer: The enrichment was 0.332 log2 (difference from the parental peptide).

Question: chain 1 T6R was tested. Which enrichment did it give?
Answer: Its enrichment is 3.99 log2 (difference from the parental peptide).

Question: chain 1 T6G was tested. Which enrichment did it give?
Answer: The enrichment was 4.19 log2 (difference from the parental peptide).

Question: Which enrichment does the source give for chain 1 T6H here?
Answer: The enrichment was -0.995 log2 (difference from the parental peptide).

Question: Which enrichment does the source give for chain 1 T6I here?
Answer: Its enrichment is 0.467 log2 (difference from the parental peptide).

Question: How did the enrichment turn out when chain 1 Y14L was run?
Answer: The enrichment was -8.75 log2 (difference from the parental peptide).

Question: With chain 1 Y14W as the variant, how does the enrichment read?
Answer: Its enrichment is -6.55 log2 (difference from the parental peptide).

Question: With chain 1 Y14Q as the variant, how does the enrichment read?
Answer: Its enrichment is -6.31 log2 (difference from the parental peptide).

Question: For chain 1 A9I, which enrichment is on record?
Answer: Its enrichment is 0.725 log2 (difference from the parental peptide).

Question: For chain 1 A9L, which enrichment is on record?
Answer: Its enrichment is 0.282 log2 (difference from the parental peptide).

Question: Which enrichment does the source give for chain 1 A9M here?
Answer: Its enrichment is 0.996 log2 (difference from the parental peptide).

Question: Which enrichment does the source give for chain 1 A9Y here?
Answer: The enrichment was -5.34 log2 (difference from the parental peptide).

Question: With chain 1 E1I as the variant, how does the enrichment read?
Answer: The enrichment was 3.24 log2 (difference from the parental peptide).

Question: With chain 1 E1L as the variant, how does the enrichment read?
Answer: Its enrichment is 0.456 log2 (difference from the parental peptide).

Question: For chain 1 E1D, which enrichment is on record?
Answer: Its enrichment is 2.43 log2 (difference from the parental peptide).

Question: For chain 1 E1W, which enrichment is on record?
Answer: Its enrichment is -4.16 log2 (difference from the parental peptide).

Question: For chain 1 E1F, which enrichment is on record?
Answer: Its enrichment is 0.23 log2 (difference from the parental peptide).

Question: For chain 1 P10G, which enrichment is on record?
Answer: The enrichment was -1.01 log2 (difference from the parental peptide).

Question: How did the enrichment turn out when chain 1 P10W was run?
Answer: Its enrichment is 1.96 log2 (difference from the parental peptide).

Question: For chain 1 P10S, which enrichment is on record?
Answer: The enrichment was -0.979 log2 (difference from the parental peptide).

Question: chain 1 C13W was tested. Which enrichment did it give?
Answer: Its enrichment is -7.91 log2 (difference from the parental peptide).

Question: For chain 1 C13V, which enrichment is on record?
Answer: Its enrichment is 2.72 log2 (difference from the parental peptide).

Question: chain 1 C13E was tested. Which enrichment did it give?
Answer: The enrichment was -8.19 log2 (difference from the parental peptide).

Question: Which enrichment does the source give for chain 1 T12Y here?
Answer: The enrichment was 2.9 log2 (difference from the parental peptide).

Question: For chain 1 T12F, which enrichment is on record?
Answer: The enrichment was 2.31 log2 (difference from the parental peptide).

Question: Which enrichment does the source give for chain 1 T12P here?
Answer: The enrichment was -5.93 log2 (difference from the parental peptide).

Question: chain 1 T12C was tested. Which enrichment did it give?
Answer: The enrichment was -5.89 log2 (difference from the parental peptide).

Question: How did the enrichment turn out when chain 1 T12L was run?
Answer: Its enrichment is 1.89 log2 (difference from the parental peptide).

Question: Which enrichment does the source give for chain 1 T12Q here?
Answer: Its enrichment is -4.89 log2 (difference from the parental peptide).

Question: chain 1 T12K was tested. Which enrichment did it give?
Answer: The enrichment was -5.85 log2 (difference from the parental peptide).

Question: For chain 1 Y5I, which enrichment is on record?
Answer: Its enrichment is 0.188 log2 (difference from the parental peptide).

Question: Which enrichment does the source give for chain 1 Y5H here?
Answer: The enrichment was -3.59 log2 (difference from the parental peptide).

Question: For chain 1 Y5C, which enrichment is on record?
Answer: The enrichment was -4.43 log2 (difference from the parental peptide).

Question: chain 1 A7P was tested. Which enrichment did it give?
Answer: Its enrichment is -3.32 log2 (difference from the parental peptide).

Question: How did the enrichment turn out when chain 1 A7V was run?
Answer: The enrichment was -1.42 log2 (difference from the parental peptide).

Question: Which enrichment does the source give for chain 1 A7L here?
Answer: Its enrichment is 0.408 log2 (difference from the parental peptide).

Question: For chain 1 A7K, which enrichment is on record?
Answer: Its enrichment is 3.78 log2 (difference from the parental peptide).

Question: For chain 1 A7E, which enrichment is on record?
Answer: The enrichment was 2.45 log2 (difference from the parental peptide).

Question: Which enrichment does the source give for chain 1 A7F here?
Answer: The enrichment was 2.13 log2 (difference from the parental peptide).

Question: How did the enrichment turn out when chain 1 E2L was run?
Answer: The enrichment was -1.86 log2 (difference from the parental peptide).

Question: Which enrichment does the source give for chain 1 E2W here?
Answer: The enrichment was 0.435 log2 (difference from the parental peptide).

Question: For chain 1 E2T, which enrichment is on record?
Answer: The enrichment was -2.03 log2 (difference from the parental peptide).

Question: chain 1 F15I was tested. Which enrichment did it give?
Answer: Its enrichment is -3.52 log2 (difference from the parental peptide).

Question: For chain 1 F15R, which enrichment is on record?
Answer: Its enrichment is -5.53 log2 (difference from the parental peptide).

Question: How did the enrichment turn out when chain 1 L11F was run?
Answer: The enrichment was 1.48 log2 (difference from the parental peptide).

Question: chain 1 L11M was tested. Which enrichment did it give?
Answer: The enrichment was 2.64 log2 (difference from the parental peptide).

Question: With chain 1 L11S as the variant, how does the enrichment read?
Answer: Its enrichment is -6.87 log2 (difference from the parental peptide).

Question: For chain 1 L11T, which enrichment is on record?
Answer: The enrichment was -4.92 log2 (difference from the parental peptide).

Question: For chain 1 L11W, which enrichment is on record?
Answer: The enrichment was 0.85 log2 (difference from the parental peptide).

Question: For chain 1 L11Q, which enrichment is on record?
Answer: The enrichment was -4.52 log2 (difference from the parental peptide).

Question: Which enrichment does the source give for chain 1 L11H here?
Answer: Its enrichment is 3.17 log2 (difference from the parental peptide).

Question: With chain 1 D4Y as the variant, how does the enrichment read?
Answer: Its enrichment is -1.42 log2 (difference from the parental peptide).

Question: Which enrichment does the source give for chain 1 D4N here?
Answer: Its enrichment is 1.31 log2 (difference from the parental peptide).

Question: Which enrichment does the source give for chain 1 D4S here?
Answer: The enrichment was -1.33 log2 (difference from the parental peptide).

Question: With chain 1 D4W as the variant, how does the enrichment read?
Answer: The enrichment was -5.85 log2 (difference from the parental peptide).

Variants of: B2

Question: chain 1 L11W was tested. Which enrichment did it give?
Answer: The enrichment was -0.114 log2 (difference from the parental peptide).

Question: chain 1 T16N was tested. Which enrichment did it give?
Answer: The enrichment was -0.351 log2 (difference from the parental peptide).

Question: How did the enrichment turn out when chain 1 F15S was run?
Answer: Its enrichment is -0.0654 log2 (difference from the parental peptide).

Question: chain 1 T12R was tested. Which enrichment did it give?
Answer: Its enrichment is -1.56 log2 (difference from the parental peptide).
